From patent EP0636174B1, “HYALURONAN RECEPTOR (RHAMM = RECEPTOR FOR HYLURONAN MEDIATED MOBILITY) AND HYALURONAN BINDING PEPTIDES” (UNIVERSITY OF MANITOBA, priority 1992, dated 1993)

How the values were obtained:
GST-RHAMM fusion protein = target: T1, GST-RHAMM fusion protein (Mus musculus, UniProt Q00547); experiment: Competition by peptides with binding of biotin-labelled HA to transblotted GST-RHAMM fusion protein; conditions: biotin-labelled HA pre-incubated for 1 h with 3 mg/ml peptide; Figure 13A
T1 construct: A complete RHAMM cDNA (1.43 kb) was expressed as a fusion protein with pGEX-2T in E. coli HB101; made in house; host or cells: E. coli HB101 (pGEX-2T)
T1 sequence (Q00547 319-794): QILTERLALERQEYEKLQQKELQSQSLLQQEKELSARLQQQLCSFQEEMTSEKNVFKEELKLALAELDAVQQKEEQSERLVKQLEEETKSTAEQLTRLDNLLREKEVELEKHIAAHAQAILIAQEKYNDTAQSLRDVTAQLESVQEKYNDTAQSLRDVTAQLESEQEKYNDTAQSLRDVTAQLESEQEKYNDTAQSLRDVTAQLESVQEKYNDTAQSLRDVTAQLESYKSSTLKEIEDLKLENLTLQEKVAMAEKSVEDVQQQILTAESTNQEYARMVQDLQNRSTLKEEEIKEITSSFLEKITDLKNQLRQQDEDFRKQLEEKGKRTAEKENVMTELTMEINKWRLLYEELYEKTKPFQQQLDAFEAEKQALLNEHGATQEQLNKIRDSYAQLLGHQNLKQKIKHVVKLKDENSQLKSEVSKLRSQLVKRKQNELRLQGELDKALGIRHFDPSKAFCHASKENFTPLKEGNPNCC
Procedure: Transblotted RHAMM fusion protein was stained with a 1:10,000 dilution of biotin-labelled HA that had been pre-incubated for 1 h with 3 mg/ml BSA (Figure 13A, lane 1) , 3 mg/ml peptide^aa401-411 (lane 2) or 3 mg/ml peptide^aa423-432 (lane 3).
GST-RHAMM fusion protein was electrophoresed on 10% SDS-PAGE and transblotted onto a nitrocellulose membrane. The membrane was cut into 3 strips and each was stained with 1:3000 diluted biotin-labelled HA in the presence of 3 mg/ml BSA, 3 mg/ml peptide^aa401-411 and 3 mg/ml peptide^aa423-432, respectively. The other steps were the same as described in immunoblots.

[1] = Hyaluronan-Sepharose affinity chromatography of peptides; type: binding; conditions: 0.15 M NaCl in PBS; Figure 13B
Procedure: To further test the inventor's HA-binding motif model, a number of synthetic peptides were prepared and their HA-binding ability was determined using HA-sepharose. A tyrosine residue was added to one end of each synthetic peptide for convenient spectrophotometric quantitation.
HA-Sepharose affinity gel was prepared according to the manufacturer's instruction. […]
Hyaluronan (Sigma) was coupled to AH-Sepharose 4B (Pharmacia) according to the manufacturer's instructions, resulting in an HA-Sepharose gel. Peptides, ordered from Coast Scientific (San Diego) were HPLC purified. These and randomized peptides, whose sequence was generated by computer, were applied to HA-Sepharose in the presence of 0.15 M NaCl in PBS buffer. Unbound peptides were removed by extensive washing with the same buffer. The amounts of peptides applied and that removed were determined by measuring optical density (O.D.) at 214 nm.

blocking of the binding of biotin-labelled HA to expressed GST-RHAMM fusion protein (GST-RHAMM fusion protein): blocked | binding to HA-Sepharose [1]: efficiently bound
Substance: K^423L R S Q L V K R K^432 (KLKSQLVKRK) [peptide^aa423-432]
